Measurements from patent US20220119450A1 (UNIVERSITY OF TARTU, published 2022).
No end group written: not given here. FAM = 5(6)-carboxyfluorescein; Ahx = NCCCCCC(=O)O

T1: recombinant His-tagged tenascin-C C domain (TNC-C)
T1 construct: 112 amino acids, expressed in E. coli from pET28a+ with N-terminal His-tag
T1 chain: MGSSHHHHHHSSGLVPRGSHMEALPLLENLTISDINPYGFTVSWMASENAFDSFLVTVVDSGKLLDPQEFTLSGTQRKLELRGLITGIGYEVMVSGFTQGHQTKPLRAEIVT

B1: PL5 peptide displayed on T7 phage (PPRRGLIKLKTSSNTKENSVVASLRP) (peptide)
peptide: PPRRGLIKLKTSSNTKENSVVASLRP
modifications: not fully specified (N-terminus); also: displayed on T7 phage capsid protein
notes: 26-aa peptide at the C-terminus of the T7 major capsid protein, arisen by a frameshift; also called PL5 phage
B2: PL3-functionalized silver nanoparticles (biotinylated PL3 peptide on NeutrAvidin-coated AgNPs) (peptide)
peptide: AGRGRLVR
modifications: not fully specified (N-terminus); also: biotinylated, site not given here, bound to NeutrAvidin on dye-labeled PEGylated silver nanoparticles
notes: Multivalent display on nanoparticles; also called PL3-AgNPs; AgNP-PL3
B3: synthetic FAM-labeled PL1 peptide (peptide)
peptide: {FAM-Ahx}-PPRRGLIKLKTS-OH
notes: Immobilized on ELISA plate and probed with His-tagged recombinant proteins; also called FAM-PL1

Target: T1, recombinant His-tagged tenascin-C C …
Test: binding specificity, T7 peptide phage
Method: (§1) To identify bispecific peptides that interact with both TNC-C and FN-EDB, cross screens were performed on both targets. During the first round of selection, microtiter plates coated with 20 μg/ml recombinant purified TNC-C were blocked with PBS containing 1% bovine serum albumin (BSA), followed by incubation with 5×10⁸ pfu of phages in PBS at 4° C. overnight, by washes to remove background, and by phage rescue and amplification in BLT5403 strain of E. coli (Novagen, EMD Biosciences, MA, USA) (Teesalu et al., Methods Enzymol. 503:35-56 (2012)). The following rounds of biopanning were carried on Ni-NTA Magnetic Agarose Beads (QIAGEN, Hilden, Germany) coated with hexahistidine-tagged FN-EDB (3 μg/μl beads) at room temperature. After 5 rounds of selection, a set of random clones was sequenced, and individual peptide-phage clones and control (G7 peptide-displaying or insertless) phages were incubated with FN-EDB and TNC-C-coated magnetic beads. RPARPAR phage (SEQ ID NO:5) and His-tagged NRP-1 b1b2 domain were used as positive control (Teesalu et al., Proc. Natl. Acad. Sci. U.S.A 106:16157-62 (2009)). To address the specificity of the peptide phage binding to the FN-EDB and TNC-C, the protein-coated beads were pre-incubated with 20 μg/ml blocking rabbit polyclonal antibodies.
(§2) Immobilized FAM-PL1 was probed with recombinant His-tagged EDB and TNC-C (or control BSA), followed by sequential incubation with rabbit anti-His-tag primary antibody, secondary goat anti-rabbit HRP antibody and a chromogenic peroxidase reaction.

Row | Binder | binding result
1 | B1 | binds

These binders were tested against T2, recombinant His-tagged fibronectin extra domain B (FN-EDB) (assay: binding specificity, T7 peptide phage).
T2 construct: 112 amino acids, expressed in E. coli from pET28a+ with N-terminal His-tag; also called fibronectin EDB-domain
Method: as §1, §2

Row | Binder | binding result
2 | B1 | binds

Each binder was assayed against T3, NRP-1 on NRP-1-positive cells (U87-MG glioma, PPC1 prostate carcinoma; U87-MG xenograft tumors) (UniProt O14786 22-923, limits assumed) (assay: nanoparticle binding and uptake on cultured cells, confocal imaging).
T3 construct: whole, on cells; in xenografts mouse NRP-1 is also present
T3 sequence (O14786 22-923 limits assumed): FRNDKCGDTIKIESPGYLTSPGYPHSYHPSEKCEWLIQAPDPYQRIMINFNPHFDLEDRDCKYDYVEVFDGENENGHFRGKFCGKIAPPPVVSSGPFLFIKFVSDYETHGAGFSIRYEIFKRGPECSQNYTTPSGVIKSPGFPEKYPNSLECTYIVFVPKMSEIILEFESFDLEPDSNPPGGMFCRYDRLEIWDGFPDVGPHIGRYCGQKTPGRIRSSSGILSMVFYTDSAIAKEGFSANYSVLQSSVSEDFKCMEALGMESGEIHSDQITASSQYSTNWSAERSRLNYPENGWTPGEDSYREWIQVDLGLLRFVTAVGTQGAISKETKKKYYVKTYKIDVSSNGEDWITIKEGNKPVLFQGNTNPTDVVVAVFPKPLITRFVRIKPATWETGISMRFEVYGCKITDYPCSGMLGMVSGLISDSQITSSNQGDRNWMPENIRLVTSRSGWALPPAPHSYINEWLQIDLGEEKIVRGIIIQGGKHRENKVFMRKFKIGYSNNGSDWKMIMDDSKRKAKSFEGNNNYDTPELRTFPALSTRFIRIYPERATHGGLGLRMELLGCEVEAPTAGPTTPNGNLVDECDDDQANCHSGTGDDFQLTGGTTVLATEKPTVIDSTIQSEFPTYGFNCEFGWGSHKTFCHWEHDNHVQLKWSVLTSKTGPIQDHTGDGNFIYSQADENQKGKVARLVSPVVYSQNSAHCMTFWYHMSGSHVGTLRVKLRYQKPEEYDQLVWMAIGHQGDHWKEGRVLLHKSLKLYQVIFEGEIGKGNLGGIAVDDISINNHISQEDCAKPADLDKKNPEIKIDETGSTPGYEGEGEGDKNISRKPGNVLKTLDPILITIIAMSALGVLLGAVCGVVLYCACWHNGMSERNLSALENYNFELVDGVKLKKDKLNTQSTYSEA
Method: U87-MG, PPC1, and M21 cells cultured on glass coverslips were incubated with CF555-labeled AgNPs at 37° C. for 1 hour, followed by washing with medium to remove background AgNPs. Etching solution freshly diluted from 0.2 M stock solutions of Na₂S₂O₃ and K₃Fe(CN)₆ to 10 mM working concentration in PBS was applied to cells for 3 minutes, followed by PBS washes. The cells on coverslips were fixed with −20° C. methanol for 1 minute. The cell membrane was visualized by staining with Alexa Fluor 488-labeled wheat germ agglutinin (WGA) at 1:1000 at RT for 1 h. Nuclei were stained with 4′,6-diamidino-2-phenylindole (DAPI, Molecular Probes) at 1 μg/mL. Fluoromount-G (Electron Microscopy Sciences) medium was used to mount the coverslips on microscope slides for confocal imaging.
Many cultured tumor cell lines overexpress NRP-1 and internalize peptides with active CendR motif. The uptake of CF555-labeled PL3-AgNPs in NRP-1-positive U87-MG glioma and PPC1 prostate carcinoma cells, and in NRP-1-negative M21 melanoma cells was investigated. The dye-labeled AgNP cores are well suited for fluorescence imaging as the AgNP increases the brightness of the surface-bound dye by about an order of magnitude by plasmonic enhancement. The AgNPs labeled with CF647 dye were coated with neutravidin (NA) and PEGylated, creating a stable colloid ready for coating with biotinylated peptides. […]

Row | Binder | binding result
3 | B2 | binds

Target: T1, recombinant His-tagged tenascin-C C …
Test: ELISA: immobilized FAM-PL1 probed with His-tagged protein, anti-His-tag antibody, HRP
Method: (§3) The FAM-labeled peptides were coated on ELISA plates (Nunc Maxisorp, Thermo Fisher Scientific Inc., MA, USA), blocked with PBS containing 1% BSA, and incubated with recombinant proteins at 2 μg/well in PBS for 6 h. The protein was detected using an anti-His-tag antibody, followed by horseradish peroxidase-conjugated secondary antibody, chromogenic reaction, and measurement of absorbance at 450 nm with a microplate reader (Tecan Austria GmbH, Grödig, Austria).
as §2

Row | Binder | binding result
4 | B3 | binds

The binders below were run against T2, recombinant His-tagged fibronectin … in the same assay as above.
Method: as §3, §2

Row | Binder | binding result
5 | B3 | binds

Target: T1, recombinant His-tagged tenascin-C C …
Test: T7 peptide phage binding to recombinant TNC-C, fold over control heptaglycine phage
Method: Throughout our screens, the phage recovered during a round of selection was amplified using plate amplification protocol (Teesalu et al., 2012). The 1st and 4th round of biopanning were performed on TNC-C immobilized on Costar 96-Well ELISA plate (#3590, Corning Life Sciences, Tewksbury, Mass., USA). Briefly, the multiwell plate was coated with 20 μg/ml recombinant TNC-C in 100 μl of PBS overnight at 4° C., followed by blocking with 1% bovine serum albumin (BSA) in PBS overnight at 4° C. The phage library solution (5×10⁸ pfu in 100 μl of PBS-BSA) were incubated overnight at 4° C., followed by 6 washes with PBS+1% BSA+0.1% Tween 20 to remove non-specifically bound background phages, and by phage rescue and amplification in E. coli strain BLT5403 (Novagen, EMD Biosciences, MA, USA) (Lingasamy, P. et al., Biomaterials 119373. 2019). The subsequent rounds of selection were performed on Ni-NTA Magnetic Agarose Beads (QIAGEN, Hilden, Germany) coated with His-6X tagged TNC-C (30 μg/10 μl beads) at room temperature for 1 hour in 400 μl of PBS. The TNC-C immobilized beads were washed three times with PBS+1% BSA+0.1% NP40, followed by incubation of previous round phage (5×10⁸ pfu in 100 μl of PBS+1% BSA+0.1% NP40) to TNC-C coated beads for 1 hour at room temperature. The unbound/weakly bound (background) phages were removed by rinsing six times with PBS+1% BSA+0.1% NP40, and the bound phages were eluted with 1 ml of PBS+500 mM Imidazole+0.1% NP40.
The recovered phage was tittered and amplified for a subsequent round of selection. […] RPARPAR phage on NRP-1-coated beads was used as a positive control (Teesalu et al., 2009). Phage clones displaying heptaglycine peptide (GGGGGGG, G7 (SEQ ID NO:20)) or insert less phage clones were used as negative controls.

Row | Binder | TNC-C binding (fold G7 control phage) [fold]
6 | AGVGRLRRAKLAAALE [TNC-C-selected peptide phage clone 1, AGVGRLRRAKLAAALE] | 3260
7 | RGRLRRVE [TNC-C-selected peptide phage clone 44 (Seq ID No. 37)] | 886
8 | RRLVRVA [TNC-C-selected peptide phage clone 35, RRLVRVA] | 1220
9 | VGRVRFSRKLAAALE [TNC-C-selected peptide phage clone 30, VGRVRFSRKLAAALE] | 3700
10 | CRGVLRRAKLAAALE [TNC-C-selected peptide phage clone 2, CRGVLRRAKLAAALE] | 5960
11 | CSRRGILRAKPAAALE [TNC-C-selected peptide phage clone 4, CSRRGILRAKPAAALE] | 4890
12 | RGRLVRA [TNC-C-selected peptide phage clone 45, RGRLVRA] | 737
13 | AGRGRLVRAKLAAALE [TNC-C-selected peptide phage clone 5, AGRGRLVRAKLAAALE] | 5780
14 | CQRMGVVGAKLAAALE [TNC-C-selected peptide phage clone 36, CQRMGVVGAKLAAALE] | 3930
15 | GRLTRVR [TNC-C-selected peptide phage clone 46, GRLTRVR] | 115

These binders were tested against T2, recombinant His-tagged fibronectin … (assay: T7 peptide phage binding to recombinant Fn-EDB, fold over heptaglycine (G7) control phage).
Method: The first panning round were performed on Fn-EDB immobilized on Costar 96-Well enzyme-linked immunosorbent assay (ELISA) plate (#3590, Corning Life Sciences, Tewksbury, Mass., USA). The plate was coated with 20 μg/ml recombinant Fn-EDB in 100 μl of PBS overnight at 4° C., followed by blocking with 1% bovine serum albumin (BSA) in PBS overnight at 4° C. The phage library solution (5×10⁸ pfu in 100 μl of PBS-BSA) were incubated overnight at 4° C., followed by 6 wash with PBS+BSA+0.1% Tween 20 to remove non-specifically bound background phages, and by phage rescue and amplification in E. coli strain BLT5403 (Novagen, EMD Biosciences, MA, USA) (Teesalu et al., 2012). The consequent rounds of selection were performed on Ni-NTA Magnetic Agarose Beads (QIAGEN, Hilden, Germany) coated with His-6X tagged Fn-EDB (30 μg/10 μl beads) at room temperature for 1 hour in 400 μl of PBS. The Fn-EDB immobilized beads were washed three times with PBS+BSA+0.1% NP40, followed by incubation of previous round phage (5×10⁸ pfu in 100 μl of PBS+BSA+0.1% NP40) for 1 hour at room temperature. The unbound/weakly bound phage removed by rinsing six times with PBS+BSA+0.1% NP40, binding phage were eluted with 1 ml of PBS+500 mM Imidazole+0.1% NP40. The recovered phage was tittered and amplified for a subsequent round of selection.
For cell-free binding studies using individually amplified phage clones; phage was incubated with Fn-EDB coated magnetic beads as described above. RPARPAR phage on NRP-1-coated beads was used as a positive control (Teesalu et al., 2009), Nucleolin (NCL) and Tenascin C—C domain (TNC-C) were used as negative control. Phage clones displaying heptaglycine peptide (GGGGGGG, G7 (SEQ ID NO:20)) or insert less phage clones were used as negative controls.

Row | Binder | Fold over G7 [fold]
16 | GLGGRRIKLKTS [Fn-EDB-selected peptide phage clone 3, GLGGRRIKLKTS] | 2060
17 | TSKQNSR (also called phage PL2 peptide) [PL2 peptide displayed on T7 phage (TSKQNSR)] | 89
18 | KVKKRGA [Fn-EDB-selected peptide phage clone 17, KVKKRGA] | 44
19 | TKRKGKG [Fn-EDB-selected peptide phage clone 2, TKRKGKG] | 58
20 | VHERTRI [Fn-EDB-selected peptide phage clone 24, VHERTRI] | 1
21 | GTRRRSRINLAAALE [Fn-EDB-selected peptide phage clone 10, GTRRRSRINLAAALE] | 1560
22 | GRRGRVIKLKTSEPPQ [Fn-EDB-selected peptide phage clone 4, GRRGRVIKLKTSEPPQ] | 1180
23 | RESRRGRVKLAAALE [Fn-EDB-selected peptide phage clone 33, RESRRGRVKLAAALE] | 209
